Source: patent US20160264649A1

What was measured:
Test in all cases: cell-based or functional assay
[1] = biological target: HIV-1 MGRM-A-002 Env (HIV-1)
[2] = biological target: HIV-1 MGRM-A-008 Env (HIV-1)
[3] = biological target: HIV-1 MGRM-AG-003 Env (HIV-1)
[4] = biological target: HIV-1 MGRM-AG-001 Env (HIV-1)
[5] = biological target: HIV-1 93UG077 Env (HIV-1)
[6] = biological target: HIV-1 MGRM-AE-007 Env (HIV-1)
[7] = biological target: HIV-1 MGRM-A-004 Env (HIV-1)
[8] = biological target: HIV-1 MGRM-AG-011 Env (HIV-1)
[9] = biological target: HIV-1 MGRM-A-012 Env (HIV-1)
[10] = biological target: HIV-1 MGRM-AE-005 Env (HIV-1)
[11] = biological target: HIV-1 CMU02 Env (HIV-1)
[12] = biological target: HIV-1 Env of isolate MG RM-C-027 (subtype C) (HIV-1)
[13] = biological target: HIV-1 Env of isolate MG RM-C-024 (subtype C) (HIV-1)
[14] = biological target: HIV-1 93WR029 Env (HIV-1)
[15] = biological target: HIV-1 92WR024 Env (HIV-1)
[16] = biological target: HIV-1 MGRM-AE-006 Env (HIV-1)
[17] = biological target: HIV-1 94UG103 Env (HIV-1)
[18] = biological target: HIV-1 Env of isolate MG RM-C-022 (subtype C) (HIV-1)
[19] = biological target: HIV-1 MGRM-AE-003 Env (HIV-1)
[20] = biological target: HIV-1 MGRM-A-010 Env (HIV-1)
[21] = biological target: HIV-1 MGRM-A-001 Env (HIV-1)
[22] = biological target: HIV-1 92WR009 Env (HIV-1)
[23] = biological target: HIV-1 MGRM-AE-008 Env (HIV-1)
[24] = biological target: HIV-1 92RW008 Env (HIV-1)
[25] = biological target: HIV-1 MGRM-A-009 Env (HIV-1)
[26] = biological target: HIV-1 Env of isolate MG RM-C-020 (subtype C) (HIV-1)
[27] = biological target: HIV-1 MGRM-A-013 Env (HIV-1)
[28] = biological target: HIV-1 MGRM-A-007 Env (HIV-1)
[29] = biological target: HIV-1 92TH021 Env (HIV-1)
[30] = biological target: HIV-1 Env of isolate MG RM-C-025 (subtype C) (HIV-1)
[31] = biological target: HIV-1 MGRM-A-005 Env (HIV-1)
[32] = biological target: HIV-1 MGRM-AE-002 Env (HIV-1)
[33] = biological target: HIV-1 92UG031 Env (HIV-1)
[34] = biological target: HIV-1 MGRM-AG-006 Env (HIV-1)
[35] = biological target: HIV-1 MGRM-A-006 Env (HIV-1)
[36] = biological target: HIV-1 MGRM-A-011 Env (HIV-1)
[37] = biological target: HIV-1 92WR021 Env (HIV-1)
[38] = biological target: HIV-1 MGRM-AG-002 Env (HIV-1)
[39] = biological target: HIV-1 Env of isolate MG RM-C-023 (subtype C) (HIV-1)
[40] = biological target: HIV-1 MGRM-AE-001 Env (HIV-1)
[41] = biological target: HIV-1 MGRM-AG-013 Env (HIV-1)
[42] = biological target: HIV-1 Env of isolate MG RM-C-028 (subtype C) (HIV-1)
[43] = biological target: HIV-1 MGRM-AE-004 Env (HIV-1)
[44] = biological target: HIV-1 92WR020 Env (HIV-1)
[45] = biological target: HIV-1 VLGCA1 Env (HIV-1)
[46] = biological target: HIV-1 92WR026 Env (HIV-1)
[47] = biological target: HIV-1 MGRM-A-003 Env (HIV-1)
[48] = biological target: HIV-1 MGRM-AG-005 Env (HIV-1)
[49] = biological target: HIV-1 Env of isolate MG RM-C-026 (subtype C) (HIV-1)
[50] = biological target: HIV-1 MGRM-AG-008 Env (HIV-1)
[51] = biological target: HIV-1 94KE105 Env (HIV-1)
[52] = biological target: HIV-1 MGRM-A-014 Env (HIV-1)
[53] = biological target: HIV-1 MGRM-AG-012 Env (HIV-1)
[54] = biological target: HIV-1 MGRM-AG-009 Env (HIV-1)
[55] = biological target: HIV-1 92UG037 Env (HIV-1)
[56] = biological target: HIV-1 Env of isolate MG RM-C-019 (subtype C) (HIV-1)

## 5114_A19 (PGT-128) (antibody)
[1]
  IC50: 0.149 µg/mL
[2]
  IC50: > 50 µg/mL
[3]
  IC50: 34.8 µg/mL
[4]
  IC50: 4.73 µg/mL
[5]
  IC50: 0.014 µg/mL
[6]
  IC50: > 50 µg/mL
[7]
  IC50: > 50 µg/mL
[8]
  IC50: 3.93 µg/mL
[9]
  IC50: 0.025 µg/mL
[10]
  IC50: 0.032 µg/mL
[11]
  IC50: > 50 µg/mL
[12]
  IC50: 0.081 µg/mL
[13]
  IC50: > 50 µg/mL
[14]
  IC50: > 50 µg/mL
[15]
  IC50: > 50 µg/mL
[16]
  IC50: 0.044 µg/mL
[17]
  IC50: 0.011 µg/mL
[18]
  IC50: 0.042 µg/mL
[19]
  IC50: 0.18 µg/mL
[20]
  IC50: 0.005 µg/mL
[21]
  IC50: > 50 µg/mL
[22]
  IC50: 0.812 µg/mL
[23]
  IC50: > 50 µg/mL
[24]
  IC50: 0.003 µg/mL
[25]
  IC50: 0.005 µg/mL
[26]
  IC50: 5.85 µg/mL
[27]
  IC50: 0.008 µg/mL
[28]
  IC50: > 50 µg/mL
[29]
  IC50: 0.01 µg/mL
[30]
  IC50: 10.5 µg/mL
[31]
  IC50: > 50 µg/mL
[32]
  IC50: 0.522 µg/mL
[33]
  IC50: > 50 µg/mL
[34]
  IC50: 0.009 µg/mL
[35]
  IC50: > 50 µg/mL
[36]
  IC50: > 50 µg/mL
[37]
  IC50: 0.005 µg/mL
[38]
  IC50: 4.99 µg/mL
[39]
  IC50: 0.026 µg/mL
[40]
  IC50: 0.069 µg/mL
[41]
  IC50: 0.004 µg/mL
[42]
  IC50: 14.4 µg/mL
[43]
  IC50: > 50 µg/mL
[44]
  IC50: 0.005 µg/mL
[45]
  IC50: 0.838 µg/mL
[46]
  IC50: 0.01 µg/mL
[47]
  IC50: > 50 µg/mL
[48]
  IC50: 0.037 µg/mL
[49]
  IC50: 0.007 µg/mL
[50]
  IC50: 0.668 µg/mL
[51]
  IC50: 0.007 µg/mL
[52]
  IC50: 0.007 µg/mL
[53]
  IC50: > 50 µg/mL
[54]
  IC50: 0.021 µg/mL
[55]
  IC50: 0.006 µg/mL
[56]
  IC50: 0.01 µg/mL

## 5136_H01 (PGT-131) (antibody)
[1]
  IC50: > 50 µg/mL
[2]
  IC50: > 50 µg/mL
[3]
  IC50: 2.92 µg/mL
[4]
  IC50: > 50 µg/mL
[5]
  IC50: > 50 µg/mL
[6]
  IC50: 0.026 µg/mL
[7]
  IC50: > 50 µg/mL
[8]
  IC50: > 50 µg/mL
[9]
  IC50: > 50 µg/mL
[10]
  IC50: 0.017 µg/mL
[11]
  IC50: > 50 µg/mL
[12]
  IC50: 0.065 µg/mL
[13]
  IC50: > 50 µg/mL
[14]
  IC50: > 50 µg/mL
[15]
  IC50: > 50 µg/mL
[16]
  IC50: 0.026 µg/mL
[17]
  IC50: 1.1 µg/mL
[18]
  IC50: 0.78 µg/mL
[19]
  IC50: 1.41 µg/mL
[20]
  IC50: 0.01 µg/mL
[21]
  IC50: > 50 µg/mL
[22]
  IC50: 3.12 µg/mL
[23]
  IC50: > 50 µg/mL
[24]
  IC50: 1.01 µg/mL
[25]
  IC50: 0.035 µg/mL
[26]
  IC50: > 50 µg/mL
[27]
  IC50: > 50 µg/mL
[28]
  IC50: > 50 µg/mL
[29]
  IC50: 0.014 µg/mL
[30]
  IC50: > 50 µg/mL
[31]
  IC50: > 50 µg/mL
[32]
  IC50: > 50 µg/mL
[33]
  IC50: > 50 µg/mL
[34]
  IC50: 0.019 µg/mL
[35]
  IC50: > 50 µg/mL
[36]
  IC50: > 50 µg/mL
[37]
  IC50: 0.012 µg/mL
[38]
  IC50: > 50 µg/mL
[39]
  IC50: 0.143 µg/mL
[40]
  IC50: 4.8 µg/mL
[41]
  IC50: 0.03 µg/mL
[42]
  IC50: > 50 µg/mL
[43]
  IC50: > 50 µg/mL
[44]
  IC50: 0.168 µg/mL
[45]
  IC50: > 50 µg/mL
[46]
  IC50: 0.041 µg/mL
[47]
  IC50: > 50 µg/mL
[48]
  IC50: 1.04 µg/mL
[49]
  IC50: 1.67 µg/mL
[50]
  IC50: > 50 µg/mL
[51]
  IC50: 0.013 µg/mL
[52]
  IC50: 15.4 µg/mL
[53]
  IC50: > 50 µg/mL
[54]
  IC50: > 50 µg/mL
[55]
  IC50: 0.048 µg/mL
[56]
  IC50: 0.021 µg/mL
